Starred links: 1 amine or outer side, 2 acyl side, 3 side chain; linkers in the order of their positions; H or OH if unused. Positions of bridges follow the written chain, without caps; N, C: chain ends. Non-standard residues stand in square brackets, D forms with d. No end group written: not given here. TATB = O=C(C[*:1])N1CN(C(=O)C[*:2])CN(C(=O)C[*:3])C1; Phe(4-COOH) = N[C@@H](Cc1ccc(C(=O)O)cc1)C(=O)O; Gla = N[C@@H](CC(C(=O)O)C(=O)O)C(=O)O; Hyp = O=C(O)[C@@H]1C[C@@H](O)CN1; Tle = CC(C)(C)[C@H](N)C(=O)O
Each binder was assayed against T1, Recombinant human His-tagged TfR1 (a.a. 89-760) (ACRO Biosystems, CD1-H5243) (human, UniProt P02786 89-760) (assay: SPR (Biacore), TfR1 captured/coupled on NTA chip, peptide as analyte).
T1 construct: range 89-760; Bought protein; Captured and amine-coupled on an NTA chip; also called human TfR1; transferrin receptor 1; not shown: His tag (printed 'Hiss-tagged')
T1 sequence (P02786 89-760 limits assumed): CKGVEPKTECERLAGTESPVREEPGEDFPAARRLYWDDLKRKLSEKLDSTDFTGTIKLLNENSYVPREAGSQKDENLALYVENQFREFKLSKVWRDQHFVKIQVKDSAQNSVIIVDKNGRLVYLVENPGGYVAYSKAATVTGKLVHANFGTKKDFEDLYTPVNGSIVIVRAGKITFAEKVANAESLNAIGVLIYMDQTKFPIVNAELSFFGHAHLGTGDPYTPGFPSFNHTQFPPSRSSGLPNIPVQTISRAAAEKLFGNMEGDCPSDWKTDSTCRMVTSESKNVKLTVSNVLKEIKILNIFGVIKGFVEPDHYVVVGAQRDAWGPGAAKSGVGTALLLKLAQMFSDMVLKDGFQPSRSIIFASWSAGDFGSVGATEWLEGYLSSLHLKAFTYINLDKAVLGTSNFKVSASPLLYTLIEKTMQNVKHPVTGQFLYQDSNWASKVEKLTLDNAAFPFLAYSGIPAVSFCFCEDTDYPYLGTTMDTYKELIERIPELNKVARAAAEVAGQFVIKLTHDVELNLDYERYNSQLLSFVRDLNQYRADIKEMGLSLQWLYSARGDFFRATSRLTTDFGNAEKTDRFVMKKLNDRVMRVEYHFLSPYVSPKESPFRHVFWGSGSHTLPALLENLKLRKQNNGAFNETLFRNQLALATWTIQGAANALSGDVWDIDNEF

| Binder | Kd |
| --- | --- |
| CPXDAYLGCXSYCEPW (CP[Cis-HyP]DAYLGC[tBuGly]SYCEPW: Cis-HyP at 3, tBuGly at 10; N-terminal acetyl; C-terminal CONH2; Cys 1, 9, 13 bonded to TATB scaffold, Bicyclic peptide) [BCY23184] | 13 nM |
| Ac-CP[Hyp]DAYDGC[Tle]SYCEPW-NH2 (linker 1-9-13 via TATB; SMILES CC(=O)N[C@H]1CSCC(=O)N2CN3CN(C2)C(=O)CSC[C@@H](C(=O)N[C@@H](CCC(=O)O)C(=O)N2CCC[C@H]2C(=O)N[C@@H](Cc2c[nH]c4ccccc24)C(N)=O)NC(=O)[C@H](Cc2ccc(O)cc2)NC(=O)[C@H](CO)NC(=O)[C@H](C(C)(C)C)NC(=O)[C@H](CSCC3=O)NC(=O)CNC(=O)[C@H](CC(=O)O)NC(=O)[C@H](Cc2ccc(O)cc2)NC(=O)[C@H](C)NC(=O)[C@H](CC(=O)O)NC(=O)[C@@H]2C[C@@H](O)CN2C(=O)[C@@H]2CCCN2C1=O, Bicyclic peptide) [BCY23220] | 72 nM |
| CPXDAYLGCXSYCEPY (CP[HyP]DAYLGC[tBuGly]SYCEPY: HyP at 3, tBuGly at 10; N-terminal acetyl; C-terminal CONH2; Cys 1, 9, 13 bonded to TATB scaffold, Bicyclic peptide) [BCY23207] | 7.7 nM |
| CPXDAYLGCXSYCDPW (CP[HyP]DAYLGC[tBuGly]SYCDPW: HyP at 3, tBuGly at 10; N-terminal acetyl; C-terminal CONH2; Cys 1, 9, 13 bonded to TATB scaffold, Bicyclic peptide) [BCY23230] | 15 nM |
| Ac-CP[Hyp]DAYEGC[Tle]SYCEPW-NH2 (linker 1-9-13 via TATB; SMILES CC(=O)N[C@H]1CSCC(=O)N2CN3CN(C2)C(=O)CSC[C@@H](C(=O)N[C@@H](CCC(=O)O)C(=O)N2CCC[C@H]2C(=O)N[C@@H](Cc2c[nH]c4ccccc24)C(N)=O)NC(=O)[C@H](Cc2ccc(O)cc2)NC(=O)[C@H](CO)NC(=O)[C@H](C(C)(C)C)NC(=O)[C@H](CSCC3=O)NC(=O)CNC(=O)[C@H](CCC(=O)O)NC(=O)[C@H](Cc2ccc(O)cc2)NC(=O)[C@H](C)NC(=O)[C@H](CC(=O)O)NC(=O)[C@@H]2C[C@@H](O)CN2C(=O)[C@@H]2CCCN2C1=O, Bicyclic peptide) [BCY23221] | 120 nM |
| Ac-CP[Hyp]DAYTGC[Tle]SYCEPW-NH2 (linker 1-9-13 via TATB; SMILES CC(=O)N[C@H]1CSCC(=O)N2CN3CN(C2)C(=O)CSC[C@@H](C(=O)N[C@@H](CCC(=O)O)C(=O)N2CCC[C@H]2C(=O)N[C@@H](Cc2c[nH]c4ccccc24)C(N)=O)NC(=O)[C@H](Cc2ccc(O)cc2)NC(=O)[C@H](CO)NC(=O)[C@H](C(C)(C)C)NC(=O)[C@H](CSCC3=O)NC(=O)CNC(=O)[C@H]([C@@H](C)O)NC(=O)[C@H](Cc2ccc(O)cc2)NC(=O)[C@H](C)NC(=O)[C@H](CC(=O)O)NC(=O)[C@@H]2C[C@@H](O)CN2C(=O)[C@@H]2CCCN2C1=O, Bicyclic peptide) [BCY23219] | 51 nM |
| Ac-CP[Hyp]EAYLGC[Tle]SYCEPW-NH2 (linker 1-9-13 via TATB; SMILES CC(=O)N[C@H]1CSCC(=O)N2CN3CN(C2)C(=O)CSC[C@@H](C(=O)N[C@@H](CCC(=O)O)C(=O)N2CCC[C@H]2C(=O)N[C@@H](Cc2c[nH]c4ccccc24)C(N)=O)NC(=O)[C@H](Cc2ccc(O)cc2)NC(=O)[C@H](CO)NC(=O)[C@H](C(C)(C)C)NC(=O)[C@H](CSCC3=O)NC(=O)CNC(=O)[C@H](CC(C)C)NC(=O)[C@H](Cc2ccc(O)cc2)NC(=O)[C@H](C)NC(=O)[C@H](CCC(=O)O)NC(=O)[C@@H]2C[C@@H](O)CN2C(=O)[C@@H]2CCCN2C1=O, Bicyclic peptide) [BCY23216] | 158 nM |
| CP[Hyp]DAYQGC[Tle]SYCEPW-NH2 (linker 1-9-13 via TATB; not fully specified (N-terminus); printed as CP[HyP]DAYQGC[tBuGly]SYCEPW, Bicyclic peptide) [BCY23223] | 50 nM |
| Ac-CP[Hyp]DAYSGC[Tle]SYCEPW-NH2 (linker 1-9-13 via TATB; SMILES CC(=O)N[C@H]1CSCC(=O)N2CN3CN(C2)C(=O)CSC[C@@H](C(=O)N[C@@H](CCC(=O)O)C(=O)N2CCC[C@H]2C(=O)N[C@@H](Cc2c[nH]c4ccccc24)C(N)=O)NC(=O)[C@H](Cc2ccc(O)cc2)NC(=O)[C@H](CO)NC(=O)[C@H](C(C)(C)C)NC(=O)[C@H](CSCC3=O)NC(=O)CNC(=O)[C@H](CO)NC(=O)[C@H](Cc2ccc(O)cc2)NC(=O)[C@H](C)NC(=O)[C@H](CC(=O)O)NC(=O)[C@@H]2C[C@@H](O)CN2C(=O)[C@@H]2CCCN2C1=O, Bicyclic peptide) [BCY23218] | 55 nM |
| Ac-CP[Hyp]DAYNGC[Tle]SYCEPW-NH2 (linker 1-9-13 via TATB; SMILES CC(=O)N[C@H]1CSCC(=O)N2CN3CN(C2)C(=O)CSC[C@@H](C(=O)N[C@@H](CCC(=O)O)C(=O)N2CCC[C@H]2C(=O)N[C@@H](Cc2c[nH]c4ccccc24)C(N)=O)NC(=O)[C@H](Cc2ccc(O)cc2)NC(=O)[C@H](CO)NC(=O)[C@H](C(C)(C)C)NC(=O)[C@H](CSCC3=O)NC(=O)CNC(=O)[C@H](CC(N)=O)NC(=O)[C@H](Cc2ccc(O)cc2)NC(=O)[C@H](C)NC(=O)[C@H](CC(=O)O)NC(=O)[C@@H]2C[C@@H](O)CN2C(=O)[C@@H]2CCCN2C1=O, Bicyclic peptide) [BCY23222] | 58 nM |
| Ac-CP[Hyp][Gla]AYLGC[Tle]SYCEPW-NH2 (linker 1-9-13 via TATB; SMILES CC(=O)N[C@H]1CSCC(=O)N2CN3CN(C2)C(=O)CSC[C@@H](C(=O)N[C@@H](CCC(=O)O)C(=O)N2CCC[C@H]2C(=O)N[C@@H](Cc2c[nH]c4ccccc24)C(N)=O)NC(=O)[C@H](Cc2ccc(O)cc2)NC(=O)[C@H](CO)NC(=O)[C@H](C(C)(C)C)NC(=O)[C@H](CSCC3=O)NC(=O)CNC(=O)[C@H](CC(C)C)NC(=O)[C@H](Cc2ccc(O)cc2)NC(=O)[C@H](C)NC(=O)[C@H](CC(C(=O)O)C(=O)O)NC(=O)[C@@H]2C[C@@H](O)CN2C(=O)[C@@H]2CCCN2C1=O, Bicyclic peptide) [BCY23217] | 117 nM |
| CPXDAYLGCXSYCEXW (CP[HyP]DAYLGC[tBuGly]SYCE[Oxa]W: HyP at 3, tBuGly at 10, Oxa at 15; N-terminal acetyl; C-terminal CONH2; Cys 1, 9, 13 bonded to TATB scaffold, Bicyclic peptide) [BCY23205] | 11 nM |
| CPXDAYLGCXSYCEPX (CP[HyP]DAYLGC[tBuGly]SYCEP[DOPA]: HyP at 3, tBuGly at 10, DOPA at 16; N-terminal acetyl; C-terminal CONH2; Cys 1, 9, 13 bonded to TATB scaffold, Bicyclic peptide) [BCY23208] | 6 nM |
| CPXDAYLGCXSYCXPW (CP[HyP]DAYLGC[tBuGly]SYC[Gla]PW: HyP at 3, tBuGly at 10, Gla at 14; N-terminal acetyl; C-terminal CONH2; Cys 1, 9, 13 bonded to TATB scaffold, Bicyclic peptide) [BCY23231] | 25 nM |
| Ac-CP[Hyp]DA[Phe(4-COOH)]LGC[Tle]SYCEPW-NH2 (linker 1-9-13 via TATB; SMILES CC(=O)N[C@H]1CSCC(=O)N2CN3CN(C2)C(=O)CSC[C@@H](C(=O)N[C@@H](CCC(=O)O)C(=O)N2CCC[C@H]2C(=O)N[C@@H](Cc2c[nH]c4ccccc24)C(N)=O)NC(=O)[C@H](Cc2ccc(O)cc2)NC(=O)[C@H](CO)NC(=O)[C@H](C(C)(C)C)NC(=O)[C@H](CSCC3=O)NC(=O)CNC(=O)[C@H](CC(C)C)NC(=O)[C@H](Cc2ccc(C(=O)O)cc2)NC(=O)[C@H](C)NC(=O)[C@H](CC(=O)O)NC(=O)[C@@H]2C[C@@H](O)CN2C(=O)[C@@H]2CCCN2C1=O, Bicyclic peptide) [BCY23187] | 38 nM |

Reference: US20250276073A1 (Bicycle, published 2025)
